Paper PMC8096265, “A functional LSD1 coregulator screen reveals a novel transcriptional regulatory cascade connecting R-loop homeostasis with epigenetic regulation” (Nucleic Acids Research, 2021)

Molecular target: FITC-labelled H3.1 peptide (residues 16-34) trimethylated at K27 (UniProt P68431)
Assay: fluorescence polarisation; fluorescence anisotropy; 50 nM FITC-labelled H3.1 (16-34) peptide in 20 mM HEPES pH 7.5, 100 mM KCl, 0.1 mM DTT, 10% glycerol; DDX19A added stepwise; 23°C; fit to a simple binding equilibrium

B1: GST-DDX19A (recombinant full-length DEAD-box helicase 19A) (enzyme)
chain: MATDSWALAVDEQEAAVKSMTNLQIKEEKVKADTNGIIKTSTTAEKTDEEEKEDRAAQSLLNKLIRSNLVDNTNQVEVLQRDPNSPLYSVKSFEELRLKPQLLQGVYAMGFNRPSKIQENALPMMLAEPPQNLIAQSQSGTGKTAAFVLAMLSRVEPSDRYPQCLCLSPTYELALQTGKVIEQMGKFYPELKLAYAVRGNKLERGQKISEQIVIGTPGTVLDWCSKLKFIDPKKIKVFVLDEADVMIATQGHQDQSIRIQRMLPRNCQMLLFSATFEDSVWKFAQKVVPDPNVIKLKREEETLDTIKQYYVLCSSRDEKFQALCNLYGAITIAQAMIFCHTRKTASWLAAELSKEGHQVALLSGEMMVEQRAAVIERFREGKEKVLVTTNVCARGIDVEQVSVVINFDLPVDKDGNPDNETYLHRIGRTGRFGKRGLAVNMVDSKHSMNILNRIQEHFNKKIERLDTDDLDEIEKIAN
For B1, the Kd was 82 nM.
